Measured values reported in patent US20240117061A1 (WUHAN YZY BIOPHARMA, published 2024).

Legend:
[1] = molecular target: T1, human BCMA on cells (NCI-H929, U266B1, HEK293 huBCMA) (human, UniProt Q02223 1-184); test: flow cytometry on U266B1 cells
T1 construct: whole, on cells; also called cell surface BCMA antigen
T1 sequence (looked up): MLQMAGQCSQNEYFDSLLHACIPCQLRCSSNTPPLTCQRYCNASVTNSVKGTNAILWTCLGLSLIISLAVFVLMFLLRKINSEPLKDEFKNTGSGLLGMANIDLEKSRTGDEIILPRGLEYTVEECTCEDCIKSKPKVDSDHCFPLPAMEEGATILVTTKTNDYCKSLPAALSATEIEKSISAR
Experimental: (§1) Procedures: The cells were resuspended in PBS, and the cell density was adjusted to 2×10^5 cells/well. Human-mouse chimeric monoclonal antibodies were added to a 96-well plate at 50 μL/well and serially 3-fold diluted from 3000 nM to the 9th concentration. The plate was incubated for 1 h at 4° C. 150 μL of precooled PBS containing 1% of FBS was added into the 96-well plate after the co-incubation with the primary antibody was finished. The mixtures were centrifuged at 300×g for 5 min and the supernatants were discarded. The above procedures were repeated once. The fluorescent secondary antibody PE anti-human IgG Fc (Biolegend, 409304) was added at 80 μL/well. The plate was incubated at 4° C. for 30 min. 150 μL of precooled PBS containing 1% of FBS was added into the 96-well plate after the co-incubation with the secondary antibody was finished. The 96-well plate was centrifuged at 300×g for 5 min and the supernatants were discarded. The above procedures were repeated once. The cells were resuspended in 100 μL of PBS containing 1% of FBS and detected on a flow cytometry (BD Accuri™ C6).

[2] = molecular target: T1, human BCMA on cells (NCI-H929, U266B1, …); test: flow cytometry on NCI-H929 cells
Experimental: as §1

[3] = molecular target: T1, human BCMA on cells (NCI-H929, U266B1, …); test: flow cytometry on NCI-H929 cells; remark: listed apart in the source
Experimental: Procedures: Preparation of cell suspensions: The cells were resuspended in PBS, and the cell density was adjusted to 2×10⁵ cells/well. Mouse antibodies were added to a 96-well plate at […] and serially 3-fold diluted from 3000 nM. The plate was incubated for 1 h at 4° C. 150 μL of precooled PBS containing 1% of FBS was added into the 96-well plate after the co-incubation with the primary antibody was finished. The mixtures were centrifuged at 300×g for 5 min and the supernatants were discarded. The above procedures were repeated once. The fluorescent secondary antibody PE […] (Biolegend, 409304) was added at 80 μL/well. The plate was incubated at 4° C. for 30 min. 150 μL of precooled PBS containing 1% of FBS was added into the 96-well plate after the co-incubation with the secondary antibody was finished. The mixtures were uniformly mixed with a pipette. The 96-well plate was centrifuged at 300×g for 5 min in a plate centrifuge and the supernatants were removed. The above procedures were repeated once. The cells were resuspended in 100 μL of PBS containing 1% of FBS and detected on a flow cytometry (BD Accuri™ C6).

[4] = molecular target: T2, recombinant human BCMA-his fusion protein (ACRO Biosystem, Cat. No. BCA-H522y) (human, UniProt Q02223 1-54); test: competitive ELISA, coated huBCMA-his, competitor APRIL-biotin
T2 construct: extracellular domain; Bought protein; also called huBCMA-his; hu BCMA-his; not shown: His tag
T2 sequence (looked up): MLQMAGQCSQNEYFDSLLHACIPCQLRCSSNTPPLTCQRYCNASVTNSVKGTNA
Experimental: The 96-well microplate was treated with 100 μL of 0.5 μg/mL huBCMA-his in PBS and incubated overnight at 4° C. The plate was then washed thrice with PBS washing buffer containing 0.1% of Tween-20 and blocked with 300 μL of PBS containing 1% of BSA for 2 h. 100 μL of each BCMA antibody was added to the plate. […] The plate was incubated at 37° C. for 1 h, and unbound secondary antibody was washed with PBS washing buffer containing 0.1% of Tween-20. The TMB chromogenic solution was added at 100 μL/well. After a 5-min reaction at room temperature, 2 M H₂SO₄ was added at 100 μL/well to terminate the reaction. The microplate was placed on a microplate reader (Molecular Devices, SPECTRA Max plus 384) and the absorbance OD450 value was read at 450 nm wavelength.

[5] = molecular target: T2, recombinant human BCMA-his fusion …; test: competitive ELISA, coated huBCMA-his, competitor 83A10-biotin, antibody at 7 µg/mL
[6] = molecular target: T3, recombinant cynomolgus monkey cynoBCMA-his (ACRO Biosystem, Cat. No. BCA-052H7) (cynomolgus monkey, UniProt A0A2K5UD97 1-53); test: SPR (Biacore T200), anti-His capture on CM5, 1:1 fit
T3 construct: extracellular domain; Bought protein; also called cynomolgus/rhesus macaque BCMA/TNFRSF17 protein; not shown: His tag
T3 sequence (A0A2K5UD97 entry or part of it): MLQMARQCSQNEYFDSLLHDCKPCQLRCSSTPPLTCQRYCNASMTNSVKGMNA

Binder | EC50 [1] [nM] | EC50 [2] [nM] | EC50 [3] [nM] | IC50 [4] [µg/mL] | competition [5] [%] | Kd [6] [nM] | koff [6] [s⁻¹] | kon [6] [M⁻¹ s⁻¹]
human-mouse chimeric antibody c-mAb2 (antibody, human IgG1, V domains shown, not shown: human IgG1 heavy chain constant region, GenBank No. AK303185.1; human kappa light chain constant region, GenBank No. MG815648.1) VH: QVQLQQSDAELVKPGTSVKISCKVSGYTFTDHTIHWMKQRPEQGLEWIGYIYPRNGNTKYNEKFKGKATLTADKSSSTAYMHLNSLTSEDSAVYFCARYDYDGYFDVWGTGTTVTVSS VL: DVVMTQTPLSLPVSLGDQASISCRSSQSHVHSDGHTYLHWYLQKPGQSPELLIYKVSNRFSGVPDRFSGSGSGTDFTLKISRVEAEDLGVYFCSQNTHFPWTFGGGTKLEIK | 14.7 | 5.7 | 5.7 | 0.0108 | 40 | – | – | –
human-mouse chimeric antibody c-mAb3 (antibody, human IgG1, V domains shown, not shown: human IgG1 heavy chain constant region, GenBank No. AK303185.1; human kappa light chain constant region, GenBank No. MG815648.1) VH: EVQLQQSGPELVKPGASVKILCKASGYTITDYNMDWVKRSHGKSLEWIGNINPHNGGSIYNQKFKGKATLTVDKSSSTAFMELRSLTSEDTAVYYCARGDATLVLDYWGQGTSLTVSS VL: DIVLTQSPASLAVSLGQRATISCRASKSVSTSGLSYMHWYQQKPGQPPKVLIYLASNLESGVPARFSGSGSGTDFTLNIHPVEEEDAATYYCQHSRELPPTFGAGTKLELK | 81.5 | 8.25 | 8.25 | > 12 | – | 0.106 | 0.000373 | 3.54e+06
